This data set in a line: yeast display, Sf9 membrane polyspecificity reagent, FACS + sequencing; frameworks hold sequencing errors. In short, it runs like this: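 Galactose induction of a Saccharomyces cerevisiae BJ5465 synthetic nanobody display library ran 36–48 hours. The cells were then stained for 1 hour at 4 °C with 10% biotinylated, detergent-solubilized Sf9 membrane reagent, pulled down on streptavidin microbeads and FACS-sorted into low and high (top ~1%) gates on expression and reagent-binding fluorescence. Labels for polyreactivity follow the gate of origin.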
Turning to “QVQLVESGGGLVQAGGSLRLSCAASGRIFGGNAMGWYRQAPGKERELVAAISKRGGSTYYADSVKGRFTISRDNAKNTVYLQMNSLKPEDTAVYYCAAGFTAWTGVWYGYWGQGTQVTVSS”, the “polyreactivity (PSR sort gate)” value is “high polyreactivity”.

As to “QVQLVESGGGLVQAGGSLRLSCAASGRIFGGYAMGWYRQAPGKERELVAAISSSGGRTYYADSVKGRFTISRDNAKNTVYLQMKSLKPEDTAVYYCNAGAGQRVSGHSFEYWGQGTQVTVSS”, the “polyreactivity (PSR sort gate)” value is given as “high polyreactivity”.

“QVQLVESGGGLVQAGGSLRLSCAASGRIFGGYAMGWYRQAPGKERELVAAITSSGSTNYADSVKGRFTISRDNAKNTVYLQMNSLKPEDTAVYYCATDFKTVYYWWGMDYWGQGTQVTVSS”: the “polyreactivity (PSR sort gate)” value was “low polyreactivity”.

Regarding “QVQLVESGGGLVQAGGSLRLSCAASGRIFGGYEMGWYRQAPGKERELVAAITSDSSTTYADSVKGRFTISRDNAKNTVYLQMNSLKPEDTAVYYCAVQVNGPVFYRPYRDYDYWGQGTQVTVSS”, the “polyreactivity (PSR sort gate)” value was “low polyreactivity”.

As for “QVQLVESGGGLVQAGGSLRLSCAASGRIFGGYGMGWYRPAPGKQRELVAAISSGGNTKYADSVKGRFTISRDNAKNTVYLQMNSLKPEDTAVYHCAAKFAQPDYRYDYWGQGTQVTVSS”, the “polyreactivity (PSR sort gate)” value was “high polyreactivity”.

For the sequence “QVQLVESGGGLVQAGGSLRLSCAASGRIFGGYTMGWYRQAPGKEREFVAAITSSGGSTYYADSVKGRFTISRDNAKNTVYLQMYSLKPEETAVYYCAVDDYYYDYDYWGQGTQVTVSS”, the “polyreactivity (PSR sort gate)” value was “low polyreactivity”.

For the sequence “QVQLVESGGGLVQAGGSLRLSCAASGRIFGGYVMGWYRQAPGKERELVAAINGGGGSTYYADSVKGRFTISRDNAKNTVYLQMNSLKPEDTAVYYCMLVKRSQRKSTIDFDYWGQGTQVTVSS”, the “polyreactivity (PSR sort gate)” value is recorded as “high polyreactivity”.

In the case of “QVQLVESGGGLVQAGGSLRLSCAASGRIFGHNAMGWYRQAPGKERELVAAISYRGCSTYYADSVKGRCTISRDNAKNTVYLQMNSLKPVDTAVYYCAARWNRGRYDYWGQGTEVTVSS”, the “polyreactivity (PSR sort gate)” value is “high polyreactivity”.

On to “QVQLVESGGGLVQAGGSLRLSCAASGRIFGHYAMGWYRHAPGKERELVAAINWRGGSTYYADSVKGRFTISRDNAKNTVYVQMKSLKPEETGVYYCAADWTKARDSIYDYWGQGSQVTVSS”, for which the “polyreactivity (PSR sort gate)” value is “low polyreactivity”.

“QVQLVESGGGLVQAGGSLRLSCAASGRIFGHYAMGWYRQAPGKERELVAAISQSGTNTYYADSVKGRFTISRDNAKNTVYLQMNSLKPEDTAVYYCAAKPPRRYQLMDYWGQGTQVTVSS”: the “polyreactivity (PSR sort gate)” value was “high polyreactivity”.

Consider “QVQLVESGGGLVQAGGSLRLSCAASGRIFGINAMGWYRQAPGKERELVAAIDSAGRTYYADSVKGRFTISRDNAKNTVYLQMNSLKPEDTAVYSCNKDHSLYEHNYWGQGTQVTVSS”, for which the “polyreactivity (PSR sort gate)” value is “low polyreactivity”.

Turning to “QVQLVESGGGLVQAGGSLRLSCAASGRIFGIYAMRWYRQAPGKERELVAAISYSGGSTYYADSVKGRFTISRDNAKNTVYLQMNSLNPEDTAVYYCNADYYASYYPYYSIRLDYLGQGTQVTVSS”, the “polyreactivity (PSR sort gate)” value is “low polyreactivity”.

As for “QVQLVESGGGLVQAGGSLRLSCAASGRIFGKNDMGWYRQAPGKEREFVATIDWSGGSTYYADSVKGRFTISRDNAKNTVYLQMNSLKPEDTAVYYCAASGWNRYLFDYWGQGTQVTVSS”, the “polyreactivity (PSR sort gate)” value was “low polyreactivity”.

Consider “QVQLVESGGGLVQAGGSLRLSCAASGRIFGKYVMGWYRQAPGKERELVAAISRSGGSTSYADSVKGRFTISRDNAKNTVYLQMNSLKPEDTAVYYCAASPAGYLAPRGYYWGQGTQVTVSS”, for which the “polyreactivity (PSR sort gate)” value was “high polyreactivity”.

“QVQLVESGGGLVQAGGSLRLSCAASGRIFGKYVMVWYRQEPGKERELVAGISWSAGSTYYADSVKGRFTISRDTAKNTVYLQMNSLKPEDSAVYSCAAGLEGGYDYWGQGTEVTVSS”: the “polyreactivity (PSR sort gate)” value was “low polyreactivity”.

On to “QVQLVESGGGLVQAGGSLRLSCAASGRIFGLYAMGWYRQAPGKERELVAAINRTGNTNYADSVKGRFTISRDNAKNTVYLQMNSLKPEDTAVYYCAARFPYWRRYDYWGQGTQVTVSS”, for which the “polyreactivity (PSR sort gate)” value is “high polyreactivity”.

(Values after the nanobody polyreactivity screen of Harvey et al. (2022).)
